B1: HSP90AB1 (parent)
chain: EADKNDKAVKDLVVLLFETALLSS

Variants of: B1
Assay: protein stability index of a GFP-peptide fusion (GPS, HEK-293T) (PSI 1-6); higher = more stable
Settings: c terminus: a fixed tail appended
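Also: lentivirally expressed fusions sorted by FACS into six bins by GFP to DsRed ratio, PSI derived from sequencing read proportions per bin multiplied by bin number.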

Protein stability index: each site, then its substitutions
A20: Q 2.44, F 2.42, M 1.97, N 2.16, G 2.46, T 1.99, P 2.27, Y 1.44, C 1.47, D 2.85, I 2.19, V 1.88, L 1.44, S 2.8, R 2.42, E 2.43, W 2.07
V13: F 2.41, T 3.27, R 2.98, I 1.93, D 3.81, K 3.37, H 2.58, P 3.78, S 3.54, E 3.74, N 3.7, C 2.03, A 2.41, G 3.38, Y 2.33, Q 4.08, L 2.1
A8: D 2.44, N 2.2, R 2.19, V 1.63, T 1.87, P 2.01, H 2.62, F 2.18, E 2.12, I 1.55, C 2.56, W 2.07, M 2.62, G 1.97, K 1.94, L 2.43, S 2.22
L16: T 3.63, A 3.56, W 2.2, Y 2.27, F 1.69, P 4.67, E 4.31, D 4.88, I 2.07, C 3.07, S 3.94, K 3.62, V 2.16, Q 4.37, G 4.18, R 3.37, H 3.34, N 4.05
K10: W 1.83, H 2.38, N 2.01, V 2.48, P 1.49, R 1.8, D 2.42, E 2.18, Y 2.7, M 1.83, A 1.82, S 1.82, L 1.82, F 2.22, G 1.86, I 1.96, C 1.96, T 2.26, Q 2.19
S24: Q 1.67, R 1.65, F 2.11, M 2.16, N 2.13, Y 2.04, D 1.93, L 2.06, V 2.29, C 1.4, H 1.89, T 1.91, E 1.93, I 1.51, P 2.72, W 1.75
L21: D 2.57, R 2.11, S 2.28, Y 1.48, N 3.31, T 2.79, P 2.88, M 1.86, G 2.58, H 2.27, A 2.49, C 2.14, V 1.94, K 2.35, I 2.17, F 2.13
F17: N 3.94, L 1.76, I 1.84, A 3.56, K 3.76, H 3.13, D 4.65, C 2.59, S 3.89, W 2.26, P 4.3, V 1.92, G 4.26, Q 3.82, E 4.22, T 3.67, Y 2.13, R 3.31, M 2.1
V14: G 2.19, M 1.61, C 2.81, T 2.12, F 1.98, R 2.29, W 1.92, A 1.77, S 2.17, I 2.04, D 3.03, Y 1.88, K 2.64, N 2.21, Q 2.33, P 3.93, L 1.72
T19: G 2.49, Q 1.75, V 2.11, Y 2.02, I 2.92, W 2.52, H 2.2, S 2.15, R 1.99, K 2.2, M 2.29

— the supplement of paper PMC10567573
